Test results from patent EP4596582A1 (Sichuan Kelun-Biotech Biopharmaceutical Co., Ltd., dated 2025).

Tests used:
[1] = target: T1, human B7-H3-4Ig-His protein (human, UniProt Q5ZPR3 29-466); assay: ELISA, antigen coated at 1 ug/ml
T1 construct: extracellular domain; Made in HEK293-EBNA cells
T1 sequence: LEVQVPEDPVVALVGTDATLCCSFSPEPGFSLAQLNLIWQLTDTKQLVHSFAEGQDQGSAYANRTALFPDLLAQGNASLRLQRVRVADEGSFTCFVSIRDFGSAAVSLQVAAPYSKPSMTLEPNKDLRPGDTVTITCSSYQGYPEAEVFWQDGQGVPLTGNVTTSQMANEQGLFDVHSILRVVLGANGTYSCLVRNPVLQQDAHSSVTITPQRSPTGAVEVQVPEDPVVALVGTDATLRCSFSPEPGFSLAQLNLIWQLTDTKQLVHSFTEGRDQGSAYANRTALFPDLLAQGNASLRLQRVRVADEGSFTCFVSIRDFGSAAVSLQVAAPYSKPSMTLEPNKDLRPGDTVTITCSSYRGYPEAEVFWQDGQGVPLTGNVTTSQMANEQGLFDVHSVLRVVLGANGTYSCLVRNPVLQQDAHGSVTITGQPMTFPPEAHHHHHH

human B7-1-his = target: T2, human B7-1-his (human, UniProt P33681 35-242); assay: ELISA, antigen coated at 1 ug/ml
T2 construct: Bought protein; not shown: his tag
T2 sequence (looked up): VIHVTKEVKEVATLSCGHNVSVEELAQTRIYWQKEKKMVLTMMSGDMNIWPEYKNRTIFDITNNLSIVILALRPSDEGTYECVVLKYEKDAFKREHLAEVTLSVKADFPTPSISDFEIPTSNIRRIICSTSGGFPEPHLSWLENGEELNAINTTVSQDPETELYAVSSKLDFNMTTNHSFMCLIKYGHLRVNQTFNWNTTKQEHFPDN

human B7-2-his = target: T3, human B7-2-his (human, UniProt P42081 24-247, limits assumed); assay: ELISA, antigen coated at 1 ug/ml
T3 construct: Bought protein; not shown: his tag
T3 sequence (looked up): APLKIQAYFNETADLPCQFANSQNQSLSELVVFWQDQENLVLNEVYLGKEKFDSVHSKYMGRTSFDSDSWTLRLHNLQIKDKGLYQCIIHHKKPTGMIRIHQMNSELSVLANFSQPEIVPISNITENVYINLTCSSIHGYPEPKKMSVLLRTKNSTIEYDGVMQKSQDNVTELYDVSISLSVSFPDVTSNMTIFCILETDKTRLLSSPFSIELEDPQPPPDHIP

human B7-H2-his = target: T4, human B7-H2-his (human, UniProt O75144 19-256, limits assumed); assay: ELISA, antigen coated at 1 ug/ml
T4 construct: Bought protein; not shown: his tag
T4 sequence (looked up): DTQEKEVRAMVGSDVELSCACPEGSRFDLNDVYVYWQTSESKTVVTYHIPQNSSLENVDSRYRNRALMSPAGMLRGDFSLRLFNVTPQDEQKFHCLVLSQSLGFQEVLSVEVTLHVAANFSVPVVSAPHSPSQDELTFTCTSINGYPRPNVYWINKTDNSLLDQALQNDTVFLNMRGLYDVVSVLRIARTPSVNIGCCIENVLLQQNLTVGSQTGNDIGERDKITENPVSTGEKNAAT

[2] = target: T5, monkey B7-H3 on CHO-S cells (CHO-S-monkey B7-H3) (monkey); assay: flow cytometry on CHO-S-monkey B7-H3 cells
T5 construct: whole, on cells; also called monkey B7-H3-overexpressed cells

[3] = target: T1, human B7-H3-4Ig-His protein; assay: ELISA, antigen coated at 1 ug/ml (specificity panel)
[4] = target: T6, monkey B7-H3-4Ig-His protein (monkey); assay: BLI (ForteBio), antibody captured on Protein A sensor, 1:1 global fit
T6 chain: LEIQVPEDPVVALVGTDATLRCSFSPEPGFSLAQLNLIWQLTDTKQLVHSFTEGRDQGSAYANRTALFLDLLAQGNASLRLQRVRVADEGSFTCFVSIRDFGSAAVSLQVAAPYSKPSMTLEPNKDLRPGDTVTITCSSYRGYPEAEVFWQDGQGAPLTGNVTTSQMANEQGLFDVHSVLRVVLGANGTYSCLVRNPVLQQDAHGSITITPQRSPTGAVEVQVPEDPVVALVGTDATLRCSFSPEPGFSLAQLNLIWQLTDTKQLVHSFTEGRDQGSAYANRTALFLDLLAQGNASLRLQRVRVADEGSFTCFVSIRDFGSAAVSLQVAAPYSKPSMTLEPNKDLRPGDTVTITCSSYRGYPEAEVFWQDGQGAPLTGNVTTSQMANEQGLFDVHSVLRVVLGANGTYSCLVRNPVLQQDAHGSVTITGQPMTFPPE

[5] = target: T7, human B7-H3-2Ig-His protein (human); assay: as above
T7 chain: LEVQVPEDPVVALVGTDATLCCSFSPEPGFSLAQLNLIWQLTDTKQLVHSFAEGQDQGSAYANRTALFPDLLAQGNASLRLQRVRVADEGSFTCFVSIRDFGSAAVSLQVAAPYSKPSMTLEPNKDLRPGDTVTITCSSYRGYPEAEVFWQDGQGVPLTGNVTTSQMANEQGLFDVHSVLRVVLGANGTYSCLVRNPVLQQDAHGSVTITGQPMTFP

[6] = target: T1, human B7-H3-4Ig-His protein; assay: as above
[7] = target: T8, rat B7-H3-2Ig-His protein (rat, UniProt Q7TPB4 29-248); assay: BLI (ForteBio), antibody captured on Protein A sensor, antigen in solution
T8 construct: extracellular domain; also called rat B7-H3-his
T8 sequence: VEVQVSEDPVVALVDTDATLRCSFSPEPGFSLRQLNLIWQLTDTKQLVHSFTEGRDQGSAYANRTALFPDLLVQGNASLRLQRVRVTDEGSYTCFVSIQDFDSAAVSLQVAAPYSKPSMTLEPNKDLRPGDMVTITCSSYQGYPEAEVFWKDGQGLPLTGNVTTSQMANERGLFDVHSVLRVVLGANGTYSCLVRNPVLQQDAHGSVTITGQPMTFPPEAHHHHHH

B1: anti-human-B7-H3 human antibody 2#8890 (antibody, human IgG1, kappa, V domains shown)
VH: QVQLQESGPGLVQPSGTLSLTCAVSGGSDSSTNWWTWVRQSPGQGLEWIGEISPIGFTSYSPSLRSRVTISVDKSKTQFSLKLSSVTAADTAVYYCARDRLYFAFWGQGTLVTVSS
VL: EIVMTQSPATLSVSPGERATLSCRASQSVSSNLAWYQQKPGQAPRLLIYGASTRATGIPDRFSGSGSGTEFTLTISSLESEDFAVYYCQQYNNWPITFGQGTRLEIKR
[1]
  EC50: 1.93 ng/mL
Human B7-1-his
  binding result: no binding (tested: 10 ug/ml highest concentration)
Human B7-2-his
  binding result: no binding (tested: 10 ug/ml highest concentration)
Human B7-H2-his
  binding result: no binding (tested: 10 ug/ml highest concentration)
[2]
  EC50: 0.0649 µg/mL
[3]
  EC50: 1.93 ng/mL
[4]
  Kd: 1.24 nM
[5]
  Kd: 18.3 nM
[6]
  Kd: 0.783 nM
[7]
  binding result: no binding (tested: 200 nM highest concentration)
